Read-outs that look alike come from different tables or passages of the source.
Experiments:
Assay in all cases: cell-based or functional assay
[1] = target: human GDF15 (hGDF15), mature, generated in-house in CHO cells (human) (UniProt Q99988)
[2] = target: human TGFβ1 (PeproTech) (human) (UniProt P01137)
[3] = target: human TGFβ3 (PeproTech) (human) (UniProt P10600)
[4] = target: human TGFβ1 (PeproTech) (human) (UniProt P01137); remark: listed apart in the source
[5] = target: murine GDF15 (mGDF15), mature, generated in-house in CHO cells (mouse) (UniProt Q9Z0J7)
[6] = target: human TGFβ3 (PeproTech) (human) (UniProt P10600); remark: listed apart in the source

human TGFβ3 (PeproTech) (human), sequence (P10600 301-412 limits assumed): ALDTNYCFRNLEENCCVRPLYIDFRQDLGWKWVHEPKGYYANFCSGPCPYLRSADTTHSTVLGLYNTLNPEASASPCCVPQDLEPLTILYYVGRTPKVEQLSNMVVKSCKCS
hTβRIIshort(29-159)-hG2Fc (Fc fusion), sequence (chain): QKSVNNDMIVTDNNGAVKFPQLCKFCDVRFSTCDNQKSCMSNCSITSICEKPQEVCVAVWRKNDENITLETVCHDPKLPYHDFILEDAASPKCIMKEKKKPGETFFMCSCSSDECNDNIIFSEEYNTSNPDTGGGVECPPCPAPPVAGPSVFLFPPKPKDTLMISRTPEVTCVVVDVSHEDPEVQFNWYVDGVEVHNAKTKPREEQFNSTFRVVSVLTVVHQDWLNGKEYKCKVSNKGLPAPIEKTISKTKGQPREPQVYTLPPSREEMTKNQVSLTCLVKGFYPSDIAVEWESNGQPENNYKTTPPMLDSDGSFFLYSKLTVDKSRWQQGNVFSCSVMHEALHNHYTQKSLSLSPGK
hTβRIIshort(23-159)-hG2Fc (Fc fusion), sequence (chain): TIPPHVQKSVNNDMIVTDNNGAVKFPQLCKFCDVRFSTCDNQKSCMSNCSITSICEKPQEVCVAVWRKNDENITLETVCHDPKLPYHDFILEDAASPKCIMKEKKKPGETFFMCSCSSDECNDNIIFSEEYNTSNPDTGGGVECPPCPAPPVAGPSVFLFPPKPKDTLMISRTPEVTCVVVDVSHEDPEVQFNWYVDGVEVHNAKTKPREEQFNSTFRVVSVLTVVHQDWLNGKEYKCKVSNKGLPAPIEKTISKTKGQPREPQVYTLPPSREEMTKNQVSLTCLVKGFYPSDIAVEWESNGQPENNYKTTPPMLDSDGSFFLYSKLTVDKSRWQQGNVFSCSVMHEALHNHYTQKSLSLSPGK
human TGFβ1 (PeproTech) (human), sequence (P01137 279-390 limits assumed): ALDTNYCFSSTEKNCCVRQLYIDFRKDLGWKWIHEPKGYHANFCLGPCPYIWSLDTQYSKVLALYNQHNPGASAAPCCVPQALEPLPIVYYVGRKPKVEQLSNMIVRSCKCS
hTβRIIshort(35-159)-hG2Fc (Fc fusion), sequence (chain): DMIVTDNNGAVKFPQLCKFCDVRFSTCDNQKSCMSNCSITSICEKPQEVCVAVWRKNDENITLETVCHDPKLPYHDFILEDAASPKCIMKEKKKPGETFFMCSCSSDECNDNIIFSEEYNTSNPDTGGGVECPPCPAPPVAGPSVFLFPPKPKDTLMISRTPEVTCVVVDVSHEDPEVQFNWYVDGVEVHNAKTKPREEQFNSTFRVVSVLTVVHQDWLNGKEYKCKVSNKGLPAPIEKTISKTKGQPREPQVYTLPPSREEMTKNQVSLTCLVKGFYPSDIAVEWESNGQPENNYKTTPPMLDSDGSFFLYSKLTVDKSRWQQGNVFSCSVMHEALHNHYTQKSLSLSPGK
hTβRIIshort(23-153)-hG2Fc (Fc fusion), sequence (chain): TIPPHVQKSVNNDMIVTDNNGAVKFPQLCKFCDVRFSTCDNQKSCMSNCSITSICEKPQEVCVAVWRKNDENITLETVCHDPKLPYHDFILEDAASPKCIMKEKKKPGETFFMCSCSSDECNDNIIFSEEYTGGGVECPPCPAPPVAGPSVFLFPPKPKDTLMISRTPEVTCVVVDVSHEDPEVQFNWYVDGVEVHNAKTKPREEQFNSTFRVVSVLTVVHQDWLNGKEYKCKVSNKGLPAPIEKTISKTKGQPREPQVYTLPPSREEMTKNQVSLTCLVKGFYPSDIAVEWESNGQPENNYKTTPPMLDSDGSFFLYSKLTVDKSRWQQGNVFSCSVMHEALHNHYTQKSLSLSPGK
human GDF15 (hGDF15), mature, generated in-house in CHO cells (human), sequence (Q99988 197-308): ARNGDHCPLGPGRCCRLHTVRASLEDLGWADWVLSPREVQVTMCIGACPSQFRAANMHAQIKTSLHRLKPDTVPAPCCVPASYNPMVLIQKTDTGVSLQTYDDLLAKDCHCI
murine GDF15 (mGDF15), mature, generated in-house in CHO cells (mouse), sequence (Q9Z0J7 192-303): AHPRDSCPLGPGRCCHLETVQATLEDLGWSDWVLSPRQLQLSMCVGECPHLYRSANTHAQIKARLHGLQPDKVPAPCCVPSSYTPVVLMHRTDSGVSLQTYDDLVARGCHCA

## hTβRIIshort(35-159)-hG2Fc (Fc fusion)
[1]
  IC50 (nM), A549 CAGA-12 reporter gene assay, hGDF15 (70 or 112 ng/ml): 0.92 nM
[2]
  IC50 (nM), A549 CAGA-12 reporter gene assay, hTGFβ1 (640 pg/ml): 2.51 nM
[3]
  IC50 (nM), A549 CAGA-12 reporter gene assay, hTGFβ3 (270 pg/ml): > 7.5 nM

## hTβRIIshort(29-159)-hG2Fc (Fc fusion)
[1]
  IC50 (nM), A549 CAGA-12 reporter gene assay, hGDF15 (70 or 112 ng/ml): 0.4 nM
[2]
  IC50 (nM), A549 CAGA-12 reporter gene assay, hTGFβ1 (640 pg/ml): 2.05 nM
[3]
  IC50 (nM), A549 CAGA-12 reporter gene assay, hTGFβ3 (270 pg/ml): > 7.5 nM

## hTβRIIshort(23-159/D110K)-hG2Fc (Fc fusion)
[4]
  IC50 (nM), A549 CAGA-12 reporter gene assay, hTGFβ1 (640 pg/ml): > 73.6 nM
[5]
  IC50 (nM), A549 CAGA-12 reporter gene assay, mGDF15 (35 ng/ml): 0.7 nM

## hTβRIIshort(23-153)-hG2Fc (Fc fusion)
[1]
  IC50 (nM), A549 CAGA-12 reporter gene assay, hGDF15 (70 ng/ml): 0.18 nM
[2]
  IC50 (nM), A549 CAGA-12 reporter gene assay, hTGFβ1 (640 pg/ml): 2.62 nM
[3]
  IC50 (nM), A549 CAGA-12 reporter gene assay, hTGFβ3 (270 pg/ml): 0.14 nM

## hTβRIIshort(23-153/N70D)-hG2Fc (Fc fusion)
[1]
  IC50 (nM), A549 CAGA-12 reporter gene assay, hGDF15 (70 ng/ml): 2.42 nM
[2]
  IC50 (nM), A549 CAGA-12 reporter gene assay, hTGFβ1 (640 pg/ml): 17.7 nM

## hTβRIIshort(23-159)-hG2Fc (Fc fusion)
[4]
  IC50 (nM), A549 CAGA-12 reporter gene assay, hTGFβ1 (640 pg/ml): 1.73 nM
[6]
  IC50 (nM), A549 CAGA-12 reporter gene assay, hTGFβ3 (270 pg/ml): 0.14 nM
[5]
  IC50 (nM), A549 CAGA-12 reporter gene assay, mGDF15 (35 ng/ml): 0.12 nM
[1]
  IC50 (nM), A549 CAGA-12 reporter gene assay, hGDF15 (70 ng/ml): 0.14 nM
[2]
  IC50 (nM), A549 CAGA-12 reporter gene assay, hTGFβ1 (640 pg/ml): 0.52 nM
[3]
  IC50 (nM), A549 CAGA-12 reporter gene assay, hTGFβ3 (270 pg/ml): 0.37 nM

Reference: patent US20150056199A1
